Target: recombinant Pseudothermotoga hypogea iron-containing alcohol dehydrogenase (Pseudothermotoga hypogea)
Assay: SEC; Superdex 200 (2.6 x 60 cm), 50 mM Tris-HCl pH 7.8, 100 mM KCl, 2 mL/min; native size worked out from the elution volume against standard proteins and compared with the subunit size by SDS-PAGE

recombinant Pseudothermotoga hypogea iron-containing alcohol dehydrogenase (enzyme)
stoichiometry N: 2

Reference: publication PMC10891854
